According to patent US20130078237A1 (Amgen, published 2013):
Where a chain is given by its changes, count along the chain named. In names and notes the source's numbering stands.

T1: human CD27L on the surface of cells (human, UniProt P32970 1-193)
T1 construct: native on Raji and 786-0 cells, recombinant on 293 cells; also called CD70; TNFSF7
T1 sequence: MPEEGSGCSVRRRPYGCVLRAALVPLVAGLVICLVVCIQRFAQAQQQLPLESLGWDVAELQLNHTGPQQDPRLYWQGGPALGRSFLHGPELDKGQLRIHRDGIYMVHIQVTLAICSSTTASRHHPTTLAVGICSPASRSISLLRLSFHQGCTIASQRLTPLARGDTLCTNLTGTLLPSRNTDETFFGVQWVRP

T2: cynomolgus monkey CD27L (cynomolgus monkey, UniProt A0A2K5WTU9 39-190)
T2 construct: also called cynomolgus CD27L
T2 sequence: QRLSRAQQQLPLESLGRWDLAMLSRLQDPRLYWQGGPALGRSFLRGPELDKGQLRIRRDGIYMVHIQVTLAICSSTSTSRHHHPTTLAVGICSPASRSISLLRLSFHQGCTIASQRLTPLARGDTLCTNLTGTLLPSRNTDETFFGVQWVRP

T3: Histidine-tagged human soluble CD27L (human, UniProt P32970 39-193)
T3 construct: also called Hu CD27L-his; soluble human CD27L-his; not shown: histidine tag
T3 sequence: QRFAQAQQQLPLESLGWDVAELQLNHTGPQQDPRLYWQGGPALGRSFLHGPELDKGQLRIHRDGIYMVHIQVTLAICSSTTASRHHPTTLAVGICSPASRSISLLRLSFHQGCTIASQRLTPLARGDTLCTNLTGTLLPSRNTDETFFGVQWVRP

T4: CD27L bound to Maxisorp plates (Homo sapiens (Human), UniProt P32970 39-193, limits assumed)
T4 sequence: T3 sequence

B1: Ab7 (antibody, human IgG1, lambda, V domains shown)
VH: QVQLVESGGGVVQPGRSLRLSCAASGFTFSTYGMHWVRQAPGKGLEWVAVIWYDGSNKYYGDSVKGRFTISRDNSKNTLYLQMNSLRAEDTAVYYCARDNSHYYYGMDVWGQGTTVTVSS
VL: QSVLTQPPSVSGAPGQRVTISCTGSSSNIGAGYDVNWYQQFPGTAPKLLIYVNNNRPSGVPDRFSGSTSGTSASLAITGLQAEDEADYYCQSYDTSLSASVFGGGTRLTVLG
notes: Fully human IgG1 from XenoMouse hybridoma
B2: Ab3 (antibody, IgG1, V domains shown)
VH: EVQLLESGGGLVQPGGSLRLSCAASGFTFSSYAMSWVRQAPGKGLEWVSVISDSGGTTDYADSVKGRFTISRDNSKNTLYLQMNSLRAEDTAVYYCARHDYSNRYYFDYWGQGTLVTVSS
VL: EIVLTQSPGTLSLSPGERATLSCRASQSFSSNYLAWYQQKPGQAPRLFIYGASSRATGIPDRFSGSGSGTDFTLTISRLEPEDFAVYFCQQYGISPCSFGQGTKLEIK
notes: Tested as hybridoma supernatant
B3: Ab4-MCC-DM1 (antibody, human IgG1, kappa, V domains shown)
VH: QVQLVESGGGVVQPGRSLRLSCAASGFTFSNYGIHWVRQAPGKGLEWVAVIWYDGSNKYYADSVKGRFTISRDNSKNTLYLQMNSLRAEDTAVYYCARDGGYSGYDSGFDYWGQGTLVTVSS
VL: DIVMTQSPLSLPVTPGEPASISCRSSQSLLNSNGYNYLDWYLQKPGQSPQFLIYLGSYRASGVPDRFSGSGSGTDFTLRISRVEAEDVGVYYCIQTLQTPFTFGPGTKVDIKR
modifications: DM1 linked through MCC (SMCC) to lysine residues; 4.5-5.0 DM1 molecules per antibody on average, sites not given
notes: also called Ab4 antibody drug conjugate; conjugated Ab4
B4: Ab4 (antibody, human IgG1, kappa, V domains shown)
VH: B3 VH
VL: B3 VL
notes: Fully human IgG1; also called A4; unconjugated parental Ab4
B5: Ab4 variant Parent LC + G33S-I34L (antibody, V domains shown)
VH: B3 VH with G33S, I34L
VL: DIVMTQSPLSLPVTPGEPASISCRSSQSLLNSNGYNYLDWYLQKPGQSPQFLIYLGSYRASGVPDRFSGSGSGTDFTLRISRVEAEDVGVYYCIQTLQTPFTFGPGTKVDIK
notes: Rest as Ab4 (IgG1)
B6: Ab4 variant Q95N-T96S + G33S-I34L (antibody, V domains shown)
VH: B3 VH with G33S, I34L
VL: B5 VL with Q95N, T96S
notes: Rest as Ab4 (IgG1)
B7: Ab4 variant L55I-Y58F + G33S-I34L (antibody, V domains shown)
VH: B3 VH with G33S, I34L
VL: B5 VL with L55I, Y58F
notes: Rest as Ab4 (IgG1)
B8: Ab4 variant Parent LC + S103G-G104S (antibody, V domains shown)
VH: B3 VH with S103G, G104S
VL: B5 VL
notes: Rest as Ab4 (IgG1)
B9: Ab4 variant R24K-S26G + G33S-I34L (antibody, V domains shown)
VH: B3 VH with G33S, I34L
VL: B5 VL with R24K, S26G
notes: Rest as Ab4 (IgG1)
B10: Ab4 variant Q95N-T96S + S103G-G104S (antibody, V domains shown)
VH: B3 VH with S103G, G104S
VL: B5 VL with Q95N, T96S
notes: Rest as Ab4 (IgG1)
B11: Ab8-MCC-DM1 (antibody, human IgG1, kappa, V domains shown)
VH: QVQLVESGGGVVQPGRSLRLSCAASGFTFSSYGMHWVRQAPGKGLEWVAVIWYDGSDKYFADSVKGRFTISRDNSKNTLYLQMNSLRAEDTAVYYCARDGIAGARYVYFDYWGQGTLVTVSS
VL: DIQMTQSPSSLSASVGDRVTITCRASQGISNYLAWFQQKPGKAPKSLIYAASSLQGGVPSKFSGSGSGTDFTLTISSLQPEDFATYYCQQYYNYPFTFGPGTTVDIKR
notes: also called Ab8 antibody drug conjugate; conjugated Ab8
B12: Ab8 (antibody, human IgG1, kappa, V domains shown)
VH: B11 VH
VL: B11 VL
notes: also called A8; unconjugated Ab8
B13: Ab6 (antibody, human IgG1, lambda, V domains shown)
VH: QVQLVQSGAEVKKPGASVKVSCKASGYTFTSYGISWVRQAPGQGLEWMGWISAYNGYTHYAQKLQGRVTMTTDTSTSTAYMELRSLRSDDTAVYYCARDYGGNDYYGMDVWGQGTTVTVSS
VL: QSVLTQPPSASGTPGQRVTISCSGSSSNIGINYVYWYQQLPGTAPKLLIYRSDQRPSGVPDRFSGSKSGTSASLALSGLRSEDEADYYCAAWDDSLSGVVFGGGTKLTVLG
notes: as for B1
B14: Ab5 (antibody, human IgG1, kappa, V domains shown)
VH: QVQLVQSGAEVKKPGASVKVSCKASGYTFTSYDINWVRQATGQGLEWMGWMNPNSGNTGYAQKFQGRVTMTRNTSISTAYMELSSLRSEDTAVYYCARGYDFWSGYYYYYYGMDVWGQGTTVTVSS
VL: EIVLTQSPGTLSLSPGERATLSCRASQSVSSSYLAWYQQRPGQAPRLLIYGASSRATGIPDRFSGSGSGTDFTLTISSLEPEDFAVYYCLQSGSSVPLTFGGGTKVEIKR
notes: as for B1
B15: Ab1 (antibody, human IgG1, kappa, V domains shown)
VH: QMQLQESGPGLVKPSQTLSLTCTVSDGSIISGVYYWSWIRQHPGKGLEWIGYIYYSGSTSYNPSLKSRLTMSVDTSKNQFSLKLSSVTAADTAVYYCARSGYSYALFDYWGQGTLVTVSS
VL: DIQMTQSPSSLSASLGDRVTITCRASQSVDRYFNWYQQKPGKAPKVLIFAASSLQSGVPSRFGGSGSGTDFTLTISSLQPEDFATYYCQQSYSTPWTFGQGTKVEVKR
notes: as for B1
B16: Ab2 (antibody, human IgG1, kappa, V domains shown)
VH: B15 VH with M2V, D26G, G27D, V33G, Y54F, S60D, L69V, M71I, Y109H
VL: DIQMTQSPSSLSASVGDRVTISCRASQFIGRYFNWYQQQPGKAPKVLIYAESSLQSGVPSRFSGSGSGTEFTLTISSLQPEDFARYYCQQSYSTPWTFGQGTKVEIKR
notes: as for B1

Columns and labels:
[1] = biological target: T1, human CD27L on the surface of cells; test: binding to cells with native human CD27L (column 'Native cell Avidity EC50 nM'); cell line and method not stated for the figure
cynomolgus monkey CD27L = biological target: T2, cynomolgus monkey CD27L; test: binding to cynomolgus CD27L (column 'Cyno Avidity EC50 nM'); method not stated for the figure
[2] = biological target: T3, Histidine-tagged human soluble CD27L; test: BIACORE 3000, antibody captured by goat anti-human IgG on a CM5 chip, Hu CD27L-his as analyte (column 'Affinity Hu Biacore KD nM')
Method: Affinity for recombinant soluble human CD27L was determined using a CM5 chip on a BIACORE 3000. Goat anti-human IgG antibody was used to capture the test antibody. Binding and dissociation of Histidine-tagged human soluble CD27L was measured to determine Kₐ, Kₐ, and KD.

[3] = biological target: T1, human CD27L on the surface of cells; test: flow cytometry (FACS) on 786-0 cells
[4] = biological target: T1, human CD27L on the surface of cells; test: cell-based or functional assay
[5] = biological target: T1, human CD27L on the surface of cells; test: Gyros, native human CD27L on Raji cells
[6] = biological target: T1, human CD27L on the surface of cells; test: cell-based or functional assay; remark: listed apart in the source
[7] = biological target: T1, human CD27L on the surface of cells; test: cell-based or functional assay; remark: listed apart in the source
[8] = biological target: T4, CD27L bound to Maxisorp plates; test: ELISA on plate-bound CD27L; abolished = no curve could be generated or max signal less than 5%
Method: CD27L was bound to Maxisorp plates at room temperature for >2 hours, shaking with lug/mL in 100 uL. The plates were then blocked with 250 uL 10% Non-fat dry milk in PBS+0.05% Tween 20 for 2 hours. After a 4×300 uL PBS+0.05% Tween20 (PBST) wash the modified Ab and purified parental control titrations ranging from 0.045 to 100 ng/mL were applied to the plates and incubated for 1 hour. A horseradish peroxidase conjugated αhuFc detection antibody (Jackson) diluted 1:7000 was applied to the plates after another PBST wash, and incubated for 1 hour. A final wash was performed and TMB substrate was incubated for 10 minutes and stopped with phosphoric acid. An OD reading at 450 nm was taken and plotted vs. concentration. These curves were then analyzed with a 3 parameter non linear curve fit and the EC₅₀ and Max calculated signal were compared to the purified control. Binding was determined to be similar to parental if the EC₅₀ was within 2 fold and the Max signal was greater than 50%. The binding was reduced if the EC₅₀ increased greater than 2 fold and/or the max signal was less than 50%. The binding was abolished if no curve could be generated or the max signal was less than 5%.

[9] = biological target: T1, human CD27L on the surface of cells; test: flow cytometry on 786-0 cells, reference Ab8

Binder | EC50 [1] [pM] | EC50 (cynomolgus monkey CD27L) [pM] | Kd [2] [pM] | binding result [8] | other results
B1 | 180 | 430 | 710 |  | 
B2 | 4180 |  | 4350 |  | 
B3 |  |  |  |  | EC50 [3]: 100 pM; 786-0-IC50, Antibody Conc. (nM); cell growth inhibition, CellTiter-Glo, 4 days [4]: 0.07 nM; 786-0-IC50, Drug Conc. (nM); cell growth inhibition, CellTiter-Glo, 4 days [4]: 0.34 nM; Kd [5]: 23 pM; ADCP, 786-0 EC50 (pM) [6]: 0.087 pM; ADCP, Raji EC50 (pM) [6]: 1.42 pM; ADCC against Raji cells, EC50 (calcein release, NK effectors) [7]: 6 ng/mL
B4 | 250 | 480 | 3050 |  | EC50 [3]: 100 pM; Kd [5]: 14 pM; ADCP, 786-0 EC50 (pM) [6]: 0.008 pM; ADCP, Raji EC50 (pM) [6]: 0.008 pM; ADCC against Raji cells, EC50 (calcein release, NK effectors) [7]: 10 ng/mL
B5 |  |  |  | no binding | 
B6 |  |  |  | no binding | 
B7 |  |  |  | no binding | 
B8 |  |  |  | no binding | 
B9 |  |  |  | no binding | 
B10 |  |  |  | no binding | 
B11 |  |  |  |  | EC50 [3]: 80 pM; 786-0-IC50, Antibody Conc. (nM); cell growth inhibition, CellTiter-Glo, 4 days [4]: 0.11 nM; 786-0-IC50, Drug Conc. (nM); cell growth inhibition, CellTiter-Glo, 4 days [4]: 0.54 nM; Kd [5]: 77 pM; fold change of binding EC50 against Ab8 [9]: 4 fold
B12 | 90 | 340 | 10800 |  | EC50 [3]: 20 pM; Kd [5]: 78 pM
B13 | 870 | 870 | 6060 |  | 
B14 | 660 | 1400 | 10400 |  | 
B15 | 320 |  | 620 |  | 
B16 | 240 |  | 590 |  | 
